Broadly, the stoichiometry N is a count of units in the complex or per binding partner.

Experiment [1] concerns the target GB1-tagged RelA-TA2 fragments (all ITC titrations). The experiment is described as follows: ITC; all ITC titrations taken together (50 mM or 150 mM NaCl); 25°C; 20 mM Tris pH 8.0, 1 mM DTT; single-binding site model. In general terms: Isothermal titration calorimetry measures the heat released or taken up as one component is titrated into another.
Experiment [2] concerns the target CBP (CREB-binding protein) (UniProt P45481). Put plainly: anti-CBP co-IP from nuclear extract, time course. As to conditions: reference: wild type; sites S467.
A further experiment has as its target p300 (UniProt B2RWS6). Put plainly: anti-p300 co-IP from nuclear extract, time course. As to conditions: reference: wild type; sites S467.

Chain of TAZ1 domain of mouse CBP (residues 340–439) (P45481 340-439): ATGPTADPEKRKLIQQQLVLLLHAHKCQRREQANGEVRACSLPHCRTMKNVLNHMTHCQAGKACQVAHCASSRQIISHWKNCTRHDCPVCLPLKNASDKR

For the substance “TAZ1 domain of mouse CBP (residues 340–439) (from UniProt P45481 340-439) (domain or fragment)”, the stoichiometry N in experiment [1] is 0.9 to 1.2.

Consider RelA (p65) (from UniProt Q04207) S467A, for which the “binding against the reference” value (in experiment [2]; in the experiment with p300) was “weaker” throughout.

(Values after publication PMC3760798.)
